Values quoted from earlier work as cited in US7449311B2, “Method of producing macedocin by culturing Streptococcus macedonicus” (Vrije Universiteit Brussel, priority 2001, dated 2008).
Read-outs that look alike come from different tables or passages of the source.

SA-FF22: lantibiotic isolated from pathogenic Streptococcus pyogenes FF22 (SEQ ID NO 2) (GKNGVFKTISHECHLNTWAFLATCCS; Streptococcus pyogenes)
loss of activity (at a pH of 7 (Tagg et al., 1978)): 50% | loss of activity (stored for 4 weeks at room temperature (Tagg et al., 1973)): 75%
